# Reference: US20190241648A1 (STATEN BIOTECHNOLOGY B V, published 2019)
# Ends that are not written are not given here.
# T1: ApoC3 peptide … F61P (human, not fully specified (bridges); also: cyclic constrained)
# T1 peptide: DKPSEFWDLDPEV
# T2: ApoC3 peptide … P69I (human, not fully specified (bridges); also: cyclic constrained)
# T2 peptide: DKFSEFWDLDIEV
# T3: ApoC3 peptide … W65L (human, not fully specified (bridges); also: cyclic constrained, ring type and places not given here)
# T3 peptide: DKFSEFLDLDPEV
# T4: ApoC3 peptide … E70S (human, cyclic constrained)
# T4 peptide: DKFSEFWDLDPSV
# T5: ApoC3 peptide … P69A (human, not fully specified (bridges); also: cyclic constrained)
# T5 peptide: DKFSEFWDLDAEV
# T6: ApoC3 peptide … L67D (human, not fully specified (bridges); also: cyclic constrained)
# T6 peptide: DKFSEFWDDDPEV
# T7: ApoC3 peptide … K60V (human, not fully specified (bridges); also: cyclic constrained)
# T7 peptide: DVFSEFWDLDPEV
# T8: ApoC3 peptide … E70W (human, cyclic constrained)
# T8 peptide: DKFSEFWDLDPWV
# T9: ApoC3 peptide … D66Y (human, not fully specified (bridges); also: cyclic constrained)
# T9 peptide: DKFSEFWYLDPEV
# T10: ApoC3 peptide … F61D (human, cyclic constrained)
# T10 peptide: DKDSEFWDLDPEV
# T11: ApoC3 peptide … F61H (human, cyclic constrained)
# T11 peptide: DKHSEFWDLDPEV
# T12: ApoC3 peptide … P69K (human, not fully specified (bridges); also: cyclic constrained)
# T12 peptide: DKFSEFWDLDKEV
# T13: ApoC3 peptide … L67R (human, not fully specified (bridges); also: cyclic constrained)
# T13 peptide: DKFSEFWDRDPEV
# T14: ApoC3 peptide … D66F (human, not fully specified (bridges); also: cyclic constrained)
# T14 peptide: DKFSEFWFLDPEV
# T15: ApoC3 peptide … F61A (human, cyclic constrained)
# T15 peptide: DKASEFWDLDPEV
# T16: ApoC3 peptide … D59M (human, cyclic constrained)
# T16 peptide: MKFSEFWDLDPEV
# T17: ApoC3 peptide … P69M (human, not fully specified (bridges); also: cyclic constrained)
# T17 peptide: DKFSEFWDLDMEV
# T18: ApoC3 peptide … D68C (human, not fully specified (bridges); also: cyclic constrained)
# T18 peptide: DKFSEFWDLCPEV
# T19: ApoC3 peptide … F64R (human, not fully specified (bridges); also: cyclic constrained)
# T19 peptide: DKFSERWDLDPEV
# T20: ApoC3 peptide … L67P (human, not fully specified (bridges); also: cyclic constrained)
# T20 peptide: DKFSEFWDPDPEV
# T21: ApoC3 peptide … D59F (human, not fully specified (bridges); also: cyclic constrained)
# T21 peptide: FKFSEFWDLDPEV
# T22: ApoC3 peptide … K60N (human, not fully specified (bridges); also: cyclic constrained)
# T22 peptide: DNFSEFWDLDPEV
# T23: ApoC3 peptide … D66E (human, not fully specified (bridges); also: cyclic constrained)
# T23 peptide: DKFSEFWELDPEV
# T24: ApoC3 peptide … D66C (human, not fully specified (bridges); also: cyclic constrained)
# T24 peptide: DKFSEFWCLDPEV
# T25: ApoC3 peptide … P69D (human, not fully specified (bridges); also: cyclic constrained)
# T25 peptide: DKFSEFWDLDDEV
# T26: ApoC3 peptide … K60L (human, not fully specified (bridges); also: cyclic constrained)
# T26 peptide: DLFSEFWDLDPEV
# B1: anti-ApoC3 antibody 6A6 (antibody, V domains shown)
# VH: EVQLVESGGGLVQPGGSLRLSCAASGFTFSSYAGRWVRQVPGKGLEWVSSINAGGGSTSYADSVKGRFTISRDNAKNTLYLQMNSLKPEDTAKYYCTQNSYRYWGQGTRVAVSS
# VL: DVVLTQTPGSLSVVPGESASISCKASQSLIHTDGKTYLYWLLQKPGQRPQLLIYQVSSHESGVPDRFTGSGSGTDFTLKISGVKAEDAGVYYCAQATYNPRTFGQGTKLEIK
# notes: it was detected with goat anti-human IgG (Fc); also called mAb 6A6; llama antibody 6A6
# How the values were obtained:
# Assay in all cases: peptide microarray
# ApoC3 peptide … F61P = target: T1, ApoC3 peptide … F61P
# In short: (§1)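 ApoC3 peptide microarrays incubated with antibody samples and then stained with goat anti-human IgG (Fc) DyLight680 plus anti-HA DyLight800 control antibody. Scanned at intensity 7/7 (red/green); a secondary-only prestain checked for background, and framing HA peptides served as quality control.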
# ApoC3 peptide … E70C = ApoC3 peptide … E70C (human, cyclic constrained)
# In short: as §1
# ApoC3 peptide … S62K = ApoC3 peptide … S62K (human, cyclic constrained)
# In short: as §1
# ApoC3 peptide … P69I = target: T2, ApoC3 peptide … P69I
# In short: as §1
# ApoC3 peptide … W65L = target: T3, ApoC3 peptide … W65L
# In short: as §1
# ApoC3 peptide … E70S = target: T4, ApoC3 peptide … E70S
# In short: as §1
# ApoC3 peptide … P69A = target: T5, ApoC3 peptide … P69A
# In short: as §1
# ApoC3 peptide … L67D = target: T6, ApoC3 peptide … L67D
# In short: as §1
# ApoC3 peptide … K60V = target: T7, ApoC3 peptide … K60V
# In short: as §1
# ApoC3 peptide … E70W = target: T8, ApoC3 peptide … E70W
# In short: as §1
# ApoC3 peptide … E63R = ApoC3 peptide … E63R (human, cyclic constrained)
# In short: as §1
# ApoC3 peptide … D66Y = target: T9, ApoC3 peptide … D66Y
# In short: as §1
# ApoC3 peptide … F61D = target: T10, ApoC3 peptide … F61D
# In short: as §1
# ApoC3 peptide … E70A = ApoC3 peptide … E70A (human, cyclic constrained)
# In short: as §1
# ApoC3 peptide … F61H = target: T11, ApoC3 peptide … F61H
# In short: as §1
# ApoC3 peptide … P69K = target: T12, ApoC3 peptide … P69K
# In short: as §1
# ApoC3 peptide … L67R = target: T13, ApoC3 peptide … L67R
# In short: as §1
# ApoC3 peptide … S62W = ApoC3 peptide … S62W (human, cyclic constrained)
# In short: as §1
# ApoC3 peptide … D66F = target: T14, ApoC3 peptide … D66F
# In short: as §1
# ApoC3 peptide … E63T = ApoC3 peptide … E63T (human, cyclic constrained)
# In short: as §1
# ApoC3 peptide … F61A = target: T15, ApoC3 peptide … F61A
# In short: as §1
# ApoC3 peptide … D59M = target: T16, ApoC3 peptide … D59M
# In short: as §1
# ApoC3 peptide … P69M = target: T17, ApoC3 peptide … P69M
# In short: as §1
# ApoC3 peptide … V71D = ApoC3 peptide … V71D (human, cyclic constrained)
# In short: as §1
# ApoC3 peptide … D68C = target: T18, ApoC3 peptide … D68C
# In short: as §1
# ApoC3 peptide … W65A = ApoC3 peptide … W65A (human, cyclic constrained)
# In short: as §1
# ApoC3 peptide … F64R = target: T19, ApoC3 peptide … F64R
# In short: as §1
# ApoC3 peptide … L67P = target: T20, ApoC3 peptide … L67P
# In short: as §1
# ApoC3 peptide … D59F = target: T21, ApoC3 peptide … D59F
# In short: as §1
# ApoC3 peptide … P69Y = ApoC3 peptide … P69Y (human, cyclic constrained)
# In short: as §1
# ApoC3 peptide … K60N = target: T22, ApoC3 peptide … K60N
# In short: as §1
# ApoC3 peptide … V71A = ApoC3 peptide … V71A (human, cyclic constrained)
# In short: as §1
# ApoC3 peptide … D66E = target: T23, ApoC3 peptide … D66E
# In short: as §1
# ApoC3 peptide … D66C = target: T24, ApoC3 peptide … D66C
# In short: as §1
# ApoC3 peptide … P69D = target: T25, ApoC3 peptide … P69D
# In short: as §1
# ApoC3 peptide … K60L = target: T26, ApoC3 peptide … K60L
# In short: as §1
# ApoC3 peptide … V71S = ApoC3 peptide … V71S (human, cyclic constrained)
# In short: as §1
binder,measurement,setting,value
B1,% of binding to wild-type peptide,ApoC3 peptide … F61P,79%
same,% of binding to wild-type peptide,ApoC3 peptide … E70C,0%
same,% of binding to wild-type peptide,ApoC3 peptide … S62K,11.1%
same,% of binding to wild-type peptide,ApoC3 peptide … P69I,81.9%
same,% of binding to wild-type peptide,ApoC3 peptide … W65L,18.5%
same,% of binding to wild-type peptide,ApoC3 peptide … E70S,1.05%
same,% of binding to wild-type peptide,ApoC3 peptide … P69A,57.4%
same,% of binding to wild-type peptide,ApoC3 peptide … L67D,2.89%
same,% of binding to wild-type peptide,ApoC3 peptide … K60V,106%
same,% of binding to wild-type peptide,ApoC3 peptide … E70W,2.84%
same,% of binding to wild-type peptide,ApoC3 peptide … E63R,5.31%
same,% of binding to wild-type peptide,ApoC3 peptide … D66Y,0%
same,% of binding to wild-type peptide,ApoC3 peptide … F61D,31.3%
same,% of binding to wild-type peptide,ApoC3 peptide … E70A,0.97%
same,% of binding to wild-type peptide,ApoC3 peptide … F61H,44.2%
same,% of binding to wild-type peptide,ApoC3 peptide … P69K,26.3%
same,% of binding to wild-type peptide,ApoC3 peptide … L67R,22.6%
same,% of binding to wild-type peptide,ApoC3 peptide … S62W,4.78%
same,% of binding to wild-type peptide,ApoC3 peptide … D66F,7.27%
same,% of binding to wild-type peptide,ApoC3 peptide … E63T,35.9%
same,% of binding to wild-type peptide,ApoC3 peptide … F61A,41.1%
same,% of binding to wild-type peptide,ApoC3 peptide … D59M,60.2%
same,% of binding to wild-type peptide,ApoC3 peptide … P69M,44.1%
same,% of binding to wild-type peptide,ApoC3 peptide … V71D,223%
same,% of binding to wild-type peptide,ApoC3 peptide … D68C,5.29%
same,% of binding to wild-type peptide,ApoC3 peptide … W65A,26.4%
same,% of binding to wild-type peptide,ApoC3 peptide … F64R,79.1%
same,% of binding to wild-type peptide,ApoC3 peptide … L67P,0%
same,% of binding to wild-type peptide,ApoC3 peptide … D59F,61.5%
same,% of binding to wild-type peptide,ApoC3 peptide … P69Y,52%
same,% of binding to wild-type peptide,ApoC3 peptide … K60N,139%
same,% of binding to wild-type peptide,ApoC3 peptide … V71A,85.2%
same,% of binding to wild-type peptide,ApoC3 peptide … D66E,18.9%
same,% of binding to wild-type peptide,ApoC3 peptide … D66C,7.92%
same,% of binding to wild-type peptide,ApoC3 peptide … P69D,98.5%
same,% of binding to wild-type peptide,ApoC3 peptide … K60L,89.2%
same,% of binding to wild-type peptide,ApoC3 peptide … V71S,84.7%
